The target of this assay is T1, FLAG-IFNAR2 (human, UniProt P48551 27-515).
T1 sequence: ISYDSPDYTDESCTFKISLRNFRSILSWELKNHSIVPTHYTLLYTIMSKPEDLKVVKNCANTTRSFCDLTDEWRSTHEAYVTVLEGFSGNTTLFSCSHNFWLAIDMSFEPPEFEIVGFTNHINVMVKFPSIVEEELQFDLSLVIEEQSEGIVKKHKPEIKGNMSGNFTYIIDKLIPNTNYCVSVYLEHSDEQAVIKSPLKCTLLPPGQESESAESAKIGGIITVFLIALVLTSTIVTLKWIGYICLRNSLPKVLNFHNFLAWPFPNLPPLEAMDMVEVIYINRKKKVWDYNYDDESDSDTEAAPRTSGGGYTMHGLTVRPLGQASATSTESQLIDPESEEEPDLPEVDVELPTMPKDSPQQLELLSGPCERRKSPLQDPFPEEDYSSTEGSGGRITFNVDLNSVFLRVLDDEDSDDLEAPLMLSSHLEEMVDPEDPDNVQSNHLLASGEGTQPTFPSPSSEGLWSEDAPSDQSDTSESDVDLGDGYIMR
The assay can be described thus: co-IP.

A value given as a limit tells only on which side of the number the result lay.

B1: USP18 (no tag named), expressed in U6A cells (enzyme)
chain: MSKAFGLLRQICQSILAESSQSPADLEEKKEEDSNMKREQPRERPRAWDYPHGLVGLHNIGQTCCLNSLIQVFVMNVDFTRILKRITVPRGADEQRRSVPFQMLLLLEKMQDSRQKAVRPLELAYCLQKCNVPLFVQHDAAQLYLKLWNLIKDQITDVHLVERLQALYTIRVKDSLICVDCAMESSRNSSMLTLPLSLFDVDSKPLKTLEDALHCFFQPRELSSKSKCFCENCGKKTRGKQVLKLTHLPQTLTIHLMRFSIRNSQTRKICHSLYFPQSLDFSQILPMKRESCDAEEQSGGQYELFAVIAHVGMADSGHYCVYIRNAVDGKWFCFNDSNICLVSWEDIQCTYGNPNYHWQETAYLLVYMKMEC
For the molecule B1, the “fold enhancement of the co-precipitation upon expression of STAT2” value was at most 10 fold.

The values above are taken from article PMC5365074 (Nature structural & molecular biology, 2017).
